The values that follow come from paper doi:10.1101/2022.12.06.519310.

The target in this test is WDR5_(WD40), as used in the ITC (human). As to the kind of experiment: ITC.

B1: unmodified H3 tail peptide of the ITC (H3K4unmodQ5unmod) (peptide)
chain: ARTKQTARKSTGGKA
modifications: not checked
For orientation: Kd means the equilibrium constant for the complex coming apart. Low readings indicate higher affinity, high ones lower affinity. B1 came in with a Kd of 20.2 µM.
